Key:
[1] = Retention of perhydrolase on hydroxyapatite (SDS-PAGE band strength); assay type: binding; conditions: relative to enzyme input = 1; for Unbound (relative band strength): 10 μM enzyme, 0.5% hydroxyapatite, pH 7.2; for HAP Particles (relative band strength): enzyme retained on particles after washes
Protocol: Perhydrolase enzymes listed in Table 6 were assessed for binding to hydroxyapatite. A dispersion of hydroxyapatite nanoparticles (Aldrich 677418) was made at 0.5% solids in 10 mM phosphate buffer at pH 7.2. Enzyme stock solution was added to the hydroxyapatite dispersion to a final concentration of 10 μM and incubated for 30 min in a microcentrifuge tube with gentle agitation. Each sample was centrifuged for 5 min at 10000 rpm. The supernatant was removed and additional buffer was added. The particles were resuspended and transferred to a new tube. The process was repeated two additional times. Samples of the original input of enzyme, the supernatant removed from the particles with each wash step and the final particles were prepared for SDS-PAGE analysis by combining 60 μL of sample, 20 μL of LDS buffer and 8 μL of reducing agent (Nu-PAGE). Samples were heated at 85° C. for 10 min. 25 μL of each sample was loaded on a 4-12% BisTris gel (Invitrogen) and run at 115 volts for 1.5 h. The gel was removed and stained with a 1:1 dilution of Simply Blue stain (Invitrogen) overnight and destained for 4 h in deionized water. The gel was analyzed and detection of enzyme in each fraction was estimated based on the presence of a band. The results of the analysis are provided in Table 7 with an indication of the relative strength of each band in the gel compared to the enzyme input (input=1) to determine the strength of binding between the hydroxyapatite surface and each enzyme.

[2] = T. maritima C277S/C277T constructs, peracetic acid in solution (Example 11); assay type: biochemical; conditions: 0.5 μM enzyme, 100 mM triacetin, 100 mM H2O2, pH 7.2, 10 min, 37° C.; no enzyme 114
Protocol: (§1) The detection of peracetic acid followed the method described in Pinkernell et. al. (Analyst, 1997, 122, 567) using colorimetric detection of 2,2′-azino-bis(3-ethylbenzothiazoline(-6-sulfonate (ABTS) oxidation by peracetic acid. Following the formation of peracetic acid with the addition of triacetin and hydrogen peroxide, 90 μL of solution was added to 10 μL of 0.1 M H3PO4 in a well plate. 50 μL of 1 M acetic acid, 50 μL of 0.5 g/L ABTS and 50 μL of 0.002 g/L of KI was added. The solution was allowed to develop for 5 min. The absorbance of the solution was measured at 405 nm using a microplate reader. The peracetic acid concentration was calculated based on a standard curve developed simultaneously using peracetic acid reagent solution.
Perhydrolase enzymes listed in Table 5 were assessed for enzyme activity in solution as described in Example 7. The enzyme activity in solution was measured by making a 500 μl solution of 0.5 μM of each enzyme in 100 mM triacetin, 100 mM H2O2 and 10 mM phosphate buffer, pH 7.2. The solution was incubated for 10 min, at 37° C. After the reaction was stopped by mixing an aliquot with H3PO4, a 10 μL aliquot was removed for proper dilution, and then detected via ABTS oxidation as described in Example 7.

[3] = T. maritima C277S/C277T constructs, peracetic acid when bound to bovine enamel (Example 11); assay type: biochemical; conditions: bovine enamel exposed to 10 μM enzyme, 4 washes; 100 mM triacetin, 100 mM H2O2, 30 min, 37° C.; no enzyme 570
Protocol: as §1
The perhydrolase enzymes were also assessed for binding to bovine enamel substrates. Enamel substrates were prepared as described in Example 2 and 3. Each enamel block was hydrated in water for overnight at room temperature (˜22° C.). The enamel blocks were then equilibrated with 10 mM potassium phosphate buffer, pH7.2, for 10 min. The enamel substrates were rinsed 3 times the buffer. The enamel wells were filled with 500 μL of 10 μM enzyme solutions which was prepared by diluting in 10 mM phosphate buffer. The samples were incubated for 30 min with slow shaking at 37° C. The non-binding enzyme was removed by washing 4 times with phosphate buffer. Then, each enamel block was embedded inside a putty filled 24-well plate, with only the enamel top surface exposed. The perhydrolase activity from enamel bound enzyme was measured as described in Example 8. 100 μL reaction mixtures (100 mM phosphate buffer, pH7.2 and 100 mM H2O2 and 100 mM triacetin) was added on top of the enamel and incubated for 30 min at 37° C. A 90 μL aliquot was removed for detection via ABTS oxidation as noted in Example 8. Each sample data point represents an average of 3 independent enamel blocks.

[4] = Two-step bleaching of coffee-tea stained bovine enamel (Example 16); conditions: for Whiteness Index 0 min: two-step: 10 μM enzyme 60 min, rinsed, then 40 mM triacetin, 100 mM H2O2, pH 7.2, before step 2; for ΔWI / Whiteness Index 5 min / Whiteness Index 15 min / Whiteness Index 30 min / Whiteness Index 45 min / Whiteness Index 60 min: two-step; for ΔWI: 0 to 60 min; for Whiteness Index 5 min: 5 min in triacetin/H2O2; for Whiteness Index 15 min: 15 min in triacetin/H2O2; for Whiteness Index 30 min: 30 min in triacetin/H2O2; for Whiteness Index 45 min: 45 min in triacetin/H2O2; for Whiteness Index 60 min: 60 min in triacetin/H2O2
Protocol: Bovine enamel incisors were prepared as indicated in Example 1. The stained enamel blocks were embedded in a 48 well plate to protect the dentin backside from solution exposure. A solution of 10 μM of each enzyme in 10 mM phosphate buffer, pH 7.2 was prepared and 500 μL of solution was incubated with each enamel substrate for 60 min. The enzyme solution was removed and each well was rinsed three times with an additional 500 μL of buffer. The enamel blocks were placed in a fresh well for the whitening process. A solution with a final concentration of 40 mM triacetin, 100 mM H2O2 in 50 mM phosphate pH 7.2 buffer was freshly prepared and 500 μL of solution was added to each enamel block. Over the course of 1 hr the enamel blocks were removed and a color measurement was obtained and then each was returned to the solution in the well plate. The whiteness index for each sample was monitored.

[5] = Perhydrolase activity in solution, ABTS detection of peracetic acid (Example 7); assay type: biochemical; conditions: 10 μL of 0.625 μg/mL enzyme, triacetin, H2O2, pH 7.2, 5 min
Protocol: as §1
The enzyme activity in solution was measured by making a solution of 0.625 μg/mL of each enzyme in 50 mM phosphate buffer, pH 7.2. 10 μL of enzyme solution was mixed with 90 μL buffer, 30 μL of 3% triacetin in water, 30 μL of 30 mM H2O2. The solution was incubated for 5 min. A 90 μL aliquot was removed for detection via ABTS oxidation as noted above.

[6] = Peracetic acid generation from hydroxyapatite bound CE-7 perhydrolase fusions (Example 8); assay type: biochemical; conditions: hydroxyapatite particles exposed to 10 μM enzyme, washed; 100 mM triacetin, 100 mM H2O2, 30 min, 37° C.; no enzyme 30-118.8
Protocol: as §1
To assess binding of these constructs to hydroxyapatite, 33 mg of hydroxyapatite particles (Macro-prep Ceramic Hydroxyapatite TYPE I, 80 μm size BioRad, Hercules, Calif.), were washed with 10 mM phosphate buffer at pH 7.2. After removing the supernatant, enzyme stock solution was added to the hydroxyapatite dispersion to a final concentration of 10 μM and incubated for 30 min in a microcentrifuge tube with gentle agitation. Each sample was centrifuged for 1 min at 10000 rpm. The supernatant was removed and additional buffer was added. The particles were resuspended and transferred to a new tube. The process was repeated two additional times. The hydroxyapatite bound enzyme activity was measured by adding a 500 μl solution containing 100 mM triacetin, 100 mM H2O2 in 100 mM phosphate buffer, pH 7.2. The solution was incubated for 30 min, at 37° C. An aliquot was removed and mixed with H3PO4 and properly diluted for detection via ABTS oxidation as described in Example 7. The experiments were performed at different day with no enzyme as control for each experiment.

B1: EZ-3: C277S-link2-H6, SEQ ID NO: 426 (protein)
chain: MAFFDLPLEELKKYRPERYEEKDFDEFWEETLAESEKFPLDPVFERMESHLKTVEAYDVTFSGYRGQRIKGWLLVPKLEEEKLPCVVQYIGYNGGRGFPHDWLFWPSMGYICFVMDTRGQGSGWLKGDTPDYPEGPVDPQYPGFMTRGILDPRTYYYRRVFTDAVRAVEAAASFPQVDQERIVIAGGSQGGGIALAVSALSKKAKALLCDVPFLCHFRRAVQLVDTHPYAEITNFLKTHRDKEEIVFRTLSYFDGVNFAARAKIPALFSVGLMDNISPPSTVFAAYNYYAGPKEIRIYPYNNHEGGGSFQAVEQVKFLKKLFEKGGSHHHHHH
In the case of B1, the “Unbound (relative band strength)” value [1] is reported as 0.8, the “HAP Particles (relative band strength)” value [1] is reported as 0.1 and the “Wash1 (relative band strength)” value [1] is reported as 0.05. The “Wash2 (relative band strength)” value [1] was 0.05, the “Peracetic acid (ppm) In Solution” value [2] was 5187 ppm and the “Peracetic acid (ppm) On Enamel” value [3] was 733 ppm. The “Whiteness Index 0 min” value [4] was −159.0, the ΔWI [4] was 75.2 and the “Whiteness Index 5 min” value [4] was −147.4. The “Whiteness Index 15 min” value [4] was −161.5, the “Whiteness Index 30 min” value [4] was −117.3 and the “Whiteness Index 45 min” value [4] was −104.7. For the same molecule, the “Whiteness Index 60 min” value [4] was −83.8 and the “Avg Absorbance 405 nm Background subtracted” value [5] was 1.751.

B2: EZ-2: C277S-link1-HC263-H6 fusion protein, SEQ ID NO: 425 (protein)
chain: MAFFDLPLEELKKYRPERYEEKDFDEFWEETLAESEKFPLDPVFERMESHLKTVEAYDVTFSGYRGQRIKGWLLVPKLEEEKLPCVVQYIGYNGGRGFPHDWLFWPSMGYICFVMDTRGQGSGWLKGDTPDYPEGPVDPQYPGFMTRGILDPRTYYYRRVFTDAVRAVEAAASFPQVDQERIVIAGGSQGGGIALAVSALSKKAKALLCDVPFLCHFRRAVQLVDTHPYAEITNFLKTHRDKEEIVFRTLSYFDGVNFAARAKIPALFSVGLMDNISPPSTVFAAYNYYAGPKEIRIYPYNNHEGGGSFQAVEQVKFLKKLFEKGGPGSGGAGSPGSAGGPGSPSAQSQLPDKHSGLHERAPQRYGPEPEPEPEPIPEPPKEAPVVIEKPKPKPKPKPKPPAHDHKNQKETHQRHAAGSGGGGSPHHHHHH
With B2 the “Unbound (relative band strength)” value [1] was 0.5, the “HAP Particles (relative band strength)” value [1] was 0.5 and the “Wash1 (relative band strength)” value [1] was 0.0. For the same molecule, the “Wash2 (relative band strength)” value [1] was 0.0, the “Peracetic acid (ppm) In Solution” value [2] was 4761 ppm and the “Peracetic acid (ppm) On Enamel” value [3] was 2549 ppm. For the same molecule, the “Whiteness Index 0 min” value [4] was −154.5, the ΔWI [4] was 129.1 and the “Whiteness Index 5 min” value [4] was −134.6. For the same molecule, the “Whiteness Index 15 min” value [4] was −97.3, the “Whiteness Index 30 min” value [4] was −57.2 and the “Whiteness Index 45 min” value [4] was −35.8. For the same molecule, the “Whiteness Index 60 min” value [4] was −25.3, the “Peracetic acid (ppm)” value [6] was 3666.4 ppm and the “Avg Absorbance 405 nm Background subtracted” value [5] was 1.577.

Reference: patent publication US8663616B2, “Enzymatic peracid generation for use in oral care products” (E I du Pont de Nemours and Company, priority 2010, dated 2014)
